Test results reported in article PMC9651861 (Science Advances, 2022).

Molecular target: T1, Trimeric His-Tagged SARS-CoV-2 Spike Glycoprotein, labelled with Alexa Fluor 647 (SARS-CoV-2, original (Wuhan-Hu-1) strain, UniProt P0DTC2, Alexa Fluor 647 (N-hydroxysuccinimide ester), estimated 13:1 dye to protein)
T1 construct: also called full trimeric spike protein; spike protein
Assay: MST
Details: both partners purified

B1: DesAb-HSA-P2 (VHH)
VHH: EVQLEESGGGLVQPGGSLRLSCAASGFNIKDTYIGWVRQAPGKGEEWVASIYPTSGYTRYADSVKGRFTISADTSKNTAYLQMNSLRAEDTAVYYCAAGSAQAGNAEEAEEEFDYWGQGTLVTVSS
Does B1 bind?
Result: no binding (tested: 4 μM)
